Data on 37 substances can be found in US20240368668A1, “SUBSTRATES AND BIOMARKERS OF ADAMTS7” (The Broad Institute, Inc., priority 2021, published 2024).

Square brackets hold non-standard residues; d marks the D form. Ends that are not written are not given here.

For this experiment, the target named is T1, mouse ADAMTS7 (Mus musculus, UniProt Q68SA9, E373Q).
T1 construct: Full-length mouse Adamts7 1-1857 (Uniprot Q68SA9, WT or E373Q catalytic mutant); expressed in transfected cells; host or cells: Human Coronary Artery Smooth Muscle Cells (HCA-SMC, Lonza), adenovirus 50 MOI
T1 sequence (Q68SA9 221-1657 E373Q): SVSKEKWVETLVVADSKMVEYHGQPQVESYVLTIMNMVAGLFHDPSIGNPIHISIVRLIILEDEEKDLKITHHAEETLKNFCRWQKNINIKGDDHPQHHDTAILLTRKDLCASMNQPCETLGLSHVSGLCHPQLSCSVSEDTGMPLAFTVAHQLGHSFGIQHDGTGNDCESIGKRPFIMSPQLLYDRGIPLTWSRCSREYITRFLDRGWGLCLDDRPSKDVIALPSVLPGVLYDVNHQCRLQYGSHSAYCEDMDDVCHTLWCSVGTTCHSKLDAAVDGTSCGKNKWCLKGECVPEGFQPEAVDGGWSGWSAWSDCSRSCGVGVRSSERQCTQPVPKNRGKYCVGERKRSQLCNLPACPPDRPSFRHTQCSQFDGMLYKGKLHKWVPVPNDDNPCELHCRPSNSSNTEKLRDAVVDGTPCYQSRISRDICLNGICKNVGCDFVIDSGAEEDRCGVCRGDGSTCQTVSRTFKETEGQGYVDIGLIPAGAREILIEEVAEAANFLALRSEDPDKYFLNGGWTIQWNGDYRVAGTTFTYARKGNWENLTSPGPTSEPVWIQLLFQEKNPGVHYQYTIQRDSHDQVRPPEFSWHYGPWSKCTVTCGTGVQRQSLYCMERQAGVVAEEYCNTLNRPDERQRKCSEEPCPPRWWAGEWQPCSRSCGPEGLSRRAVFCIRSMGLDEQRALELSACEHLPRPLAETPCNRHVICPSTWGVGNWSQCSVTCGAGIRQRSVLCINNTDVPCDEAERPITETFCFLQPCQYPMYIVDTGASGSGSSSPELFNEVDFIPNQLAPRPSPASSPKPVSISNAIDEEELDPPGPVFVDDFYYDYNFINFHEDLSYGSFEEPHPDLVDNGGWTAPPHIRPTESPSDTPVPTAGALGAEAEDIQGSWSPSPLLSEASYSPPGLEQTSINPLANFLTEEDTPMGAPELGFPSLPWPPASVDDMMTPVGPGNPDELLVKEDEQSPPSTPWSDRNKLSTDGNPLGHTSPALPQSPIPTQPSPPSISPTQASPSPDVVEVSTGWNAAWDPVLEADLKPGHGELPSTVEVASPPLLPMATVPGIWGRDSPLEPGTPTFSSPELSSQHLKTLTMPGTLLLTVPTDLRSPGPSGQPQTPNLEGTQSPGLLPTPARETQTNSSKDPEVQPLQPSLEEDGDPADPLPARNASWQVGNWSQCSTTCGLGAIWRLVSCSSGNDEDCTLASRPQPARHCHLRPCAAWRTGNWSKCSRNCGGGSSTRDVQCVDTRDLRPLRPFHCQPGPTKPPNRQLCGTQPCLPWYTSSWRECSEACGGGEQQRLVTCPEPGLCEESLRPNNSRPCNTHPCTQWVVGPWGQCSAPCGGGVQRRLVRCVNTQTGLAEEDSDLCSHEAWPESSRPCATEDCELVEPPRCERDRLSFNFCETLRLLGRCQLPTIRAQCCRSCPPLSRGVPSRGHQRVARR
Description: TMT10 TAILS N-terminomics, SMC1 experiment (Ad-mADAMTS7 WT vs EQ vs Luc, technical replicates, trypsin digest). The settings on record: TAILS neo-N-terminal peptide abundance; log fold change, Ad-mADAMTS7 EQ over Luc. It counts as cell-based. An outline of the steps: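 Full-length mouse ADAMTS7 (WT or E373Q mutant, C-terminal 3xFLAG) or luciferase was transduced via adenovirus, 50 MOI, into HCA-SMC (SMC1, SMC2) or HUVEC. SMC1: pooled media, technical triplicates 400 ug; SMC2: process triplicates 300 ug; HUVEC: process triplicates 200 ug, bFGF2 10 ng/ml.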
In the case of “HSPG2_3672 (SFLPLPTIKDAYR; listed as Homo sapiens)”, the logFC.mEQ.over.Luc stood at 0.06. As to “HSPG2_3813 (SSGFIGCVR; listed as Homo sapiens)”, the logFC.mEQ.over.Luc is −0.28. Regarding “HSPG2_4004 (SAEPLALGR; listed as Homo sapiens)”, the logFC.mEQ.over.Luc is on record as −0.37. For the substance “HSPG2_4021 (LNKDGSLR; listed as Homo sapiens)”, the logFC.mEQ.over.Luc is on record as −0.02. Consider “HSPG2_4075 (GCVGEVSVNGKR; listed as Homo sapiens)”, for which the logFC.mEQ.over.Luc is on record as 0.02. With “HSPG2_4133 (DGFKGDLCEHEENPCQLR; listed as Homo sapiens)”, the logFC.mEQ.over.Luc is recorded as −0.14. Regarding “HTRA1_33 (LAAGCPDR; listed as Homo sapiens)”, the logFC.mEQ.over.Luc amounted to 0.09. For the substance “IFI30_43 (YKTGNLYLR; listed as Homo sapiens)”, the logFC.mEQ.over.Luc is recorded as 0.00.

On to “IGFBP3_31 (SAGLGPVVR; listed as Homo sapiens)”, for which the logFC.mEQ.over.Luc was −0.04. “IGFBP3_32 (AGLGPVVR; listed as Homo sapiens)” came in with a logFC.mEQ.over.Luc of 0.28. On to “IGFBP3_200 (FSSESKR; listed as Homo sapiens)”, for which the logFC.mEQ.over.Luc is given as −0.09. Consider “IGFBP7_101 (AAGGPGVSGVCVCKSR; listed as Homo sapiens)”, for which the logFC.mEQ.over.Luc is given as 0.29.

The substance “LASP1_123 (HEEFEKSR; listed as Homo sapiens)” displayed a logFC.mEQ.over.Luc of −0.53.

Turning to “LGALS1_53 (HGDANTIVCNSKDGGAWGTEQR; listed as Homo sapiens)”, the logFC.mEQ.over.Luc was determined as 0.94. Consider “LGALS3BP_447 (FQAPSDYR; listed as Homo sapiens)”, for which the logFC.mEQ.over.Luc worked out at 0.57. As for “LOXL1_219 (VASAGVIYPYQPR; listed as Homo sapiens)”, the figure is −0.10; as for “LOXL2_37 (FQQPAPEYHQPQAPANVAKIQLR; listed as Homo sapiens)”, 0.09. Take “LOXL2_38 ([code q]QPAPEYHQPQAPANVAKIQLR; not fully specified; listed as Homo sapiens)”: the logFC.mEQ.over.Luc amounted to 0.11.

In the case of “LOXL2_318 (AYKPEQPLVR; listed as Homo sapiens)”, the logFC.mEQ.over.Luc is listed as 0.00. For the substance “LOX_58 (LSLGSQYQPQR; listed as Homo sapiens)”, the logFC.mEQ.over.Luc is given as −0.11.

Regarding “LOX_80 (ANASAQQPR; listed as Homo sapiens)”, the logFC.mEQ.over.Luc was −0.16. As for “LOX_81 (NASAQQPR; listed as Homo sapiens)”, the figure is −0.30; as for “LOX_123 (HWFQAGYSTSR; listed as Homo sapiens)”, −0.22; as for “LOX_124 (WFQAGYSTSR; listed as Homo sapiens)”, 0.08.

The substance “LOX_126 (QAGYSTSR; listed as Homo sapiens)” displayed a logFC.mEQ.over.Luc of 0.02.

“LTBP1_393 (LTATNFR; listed as Homo sapiens)” came in with a logFC.mEQ.over.Luc of 0.14. The substance “LTBP1_494 (SVQIHQVSR; listed as Homo sapiens)” gave a logFC.mEQ.over.Luc of −0.01. In turn, “LTBP1_540 (HQQVIPHVYPVAAKTQLGR; listed as Homo sapiens)” displayed a logFC.mEQ.over.Luc of 0.13. Turning to “LTBP1_546 (HVYPVAAKTQLGR; listed as Homo sapiens)”, the logFC.mEQ.over.Luc is on record as −1.05. As for “LTBP2_485 (SVQIHQVAQVR; listed as Homo sapiens)”, the figure is −0.42; as for “LTBP2_533 (SGEPPRPLPPAAPR; listed as Homo sapiens)”, 0.28.

For the substance “LTBP2_677 (SLGPGTCTLPLAQR; listed as Homo sapiens)”, the logFC.mEQ.over.Luc was determined as 0.05. In turn, “LTBP2_760 (SSGALPGPAER; listed as Homo sapiens)” came in with a logFC.mEQ.over.Luc of 0.29.

In the case of “LTBP2_1023 (GKCTNLEGSFR; listed as Homo sapiens)”, the logFC.mEQ.over.Luc is given as 0.03. To “LTBP2_1371 (SGQKGHAPCSSVLGR; listed as Homo sapiens)” belongs 0.31. As for “LTBP2_1560 (TTYTECCCQDGEAWSQQCALCPPR; listed as Homo sapiens)”, the figure is 0.23.

In turn, “LTBP2_1584 (SSEVYAQLCNVAR; listed as Homo sapiens)” came in with a logFC.mEQ.over.Luc of 0.32.
